Where a chain is given by its changes, count along the chain named. Starred links: 1 amine or outer side, 2 acyl side, 3 side chain; linkers in the order of their positions; H or OH if unused. Non-standard residues stand in square brackets, D forms with d. Groups on a side chain read outwards from the residue. No end group written: not given here. *: point of attachment. C20 diacid = O=C(O)CCCCCCCCCCCCCCCCCCC(=O)*; γGlu = O=C(O)[C@H](CCC(=O)[*:2])N[*:1]; 4Pal = N[C@@H](Cc1ccncc1)C(=O)O; αMeL = CC(C)C[C@](C)(N)C(=O)O; AEEA = NCCOCCOCC(=O)O; Aib = CC(C)(N)C(=O)O
T1: human glucose-dependent insulinotropic peptide receptor (human, UniProt P48546 22-466)
T1 sequence (looked up): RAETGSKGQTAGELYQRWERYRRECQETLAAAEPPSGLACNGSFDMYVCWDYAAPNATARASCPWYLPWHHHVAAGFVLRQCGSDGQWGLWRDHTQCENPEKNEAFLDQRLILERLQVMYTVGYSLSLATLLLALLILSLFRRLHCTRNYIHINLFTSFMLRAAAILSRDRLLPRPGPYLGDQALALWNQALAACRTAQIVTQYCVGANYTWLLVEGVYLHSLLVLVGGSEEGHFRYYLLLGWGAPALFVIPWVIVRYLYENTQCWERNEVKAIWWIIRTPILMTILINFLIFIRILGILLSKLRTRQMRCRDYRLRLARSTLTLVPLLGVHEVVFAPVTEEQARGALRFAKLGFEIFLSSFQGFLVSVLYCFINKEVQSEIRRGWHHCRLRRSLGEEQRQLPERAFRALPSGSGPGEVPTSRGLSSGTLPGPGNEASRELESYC

B1: Example 69 (peptide)
peptide: Y[Aib]EGTFISDYSI[αMeL]LDKK([AEEA-AEEA-γGlu-C20 diacid])HQ[Aib]DFVEYLLEGGPSSGAPPPS-NH2
modifications: N-terminus assumed
SMILES: CC[C@H](C)[C@H](NC(=O)[C@H](Cc1ccccc1)NC(=O)[C@@H](NC(=O)CNC(=O)[C@H](CCC(=O)O)NC(=O)C(C)(C)NC(=O)[C@@H](N)Cc1ccc(O)cc1)[C@@H](C)O)C(=O)N[C@@H](CO)C(=O)N[C@@H](CC(=O)O)C(=O)N[C@@H](Cc1ccc(O)cc1)C(=O)N[C@@H](CO)C(=O)N[C@H](C(=O)N[C@@](C)(CC(C)C)C(=O)N[C@@H](CC(C)C)C(=O)N[C@@H](CC(=O)O)C(=O)N[C@@H](CCCCN)C(=O)N[C@@H](CCCCNC(=O)COCCOCCNC(=O)COCCOCCNC(=O)CC[C@H](NC(=O)CCCCCCCCCCCCCCCCCCC(=O)O)C(=O)O)C(=O)N[C@@H](Cc1c[nH]cn1)C(=O)N[C@@H](CCC(N)=O)C(=O)NC(C)(C)C(=O)N[C@@H](CC(=O)O)C(=O)N[C@@H](Cc1ccccc1)C(=O)N[C@H](C(=O)N[C@@H](CCC(=O)O)C(=O)N[C@@H](Cc1ccc(O)cc1)C(=O)N[C@@H](CC(C)C)C(=O)N[C@@H](CC(C)C)C(=O)N[C@@H](CCC(=O)O)C(=O)NCC(=O)NCC(=O)N1CCC[C@H]1C(=O)N[C@@H](CO)C(=O)N[C@@H](CO)C(=O)NCC(=O)N[C@@H](C)C(=O)N1CCC[C@H]1C(=O)N1CCC[C@H]1C(=O)N1CCC[C@H]1C(=O)N[C@@H](CO)C(N)=O)C(C)C)[C@@H](C)CC
B2: Example 70 (peptide)
peptide: Y[Aib]EGTFISDYSI[αMeL]LDKK([AEEA-AEEA-γGlu-C20 diacid])HQ[Aib]DFVE[4Pal]LLATGPSSGAPPPS-NH2
modifications: N-terminus assumed
SMILES: CC[C@H](C)[C@H](NC(=O)[C@H](Cc1ccccc1)NC(=O)[C@@H](NC(=O)CNC(=O)[C@H](CCC(=O)O)NC(=O)C(C)(C)NC(=O)[C@@H](N)Cc1ccc(O)cc1)[C@@H](C)O)C(=O)N[C@@H](CO)C(=O)N[C@@H](CC(=O)O)C(=O)N[C@@H](Cc1ccc(O)cc1)C(=O)N[C@@H](CO)C(=O)N[C@H](C(=O)N[C@@](C)(CC(C)C)C(=O)N[C@@H](CC(C)C)C(=O)N[C@@H](CC(=O)O)C(=O)N[C@@H](CCCCN)C(=O)N[C@@H](CCCCNC(=O)COCCOCCNC(=O)COCCOCCNC(=O)CC[C@H](NC(=O)CCCCCCCCCCCCCCCCCCC(=O)O)C(=O)O)C(=O)N[C@@H](Cc1c[nH]cn1)C(=O)N[C@@H](CCC(N)=O)C(=O)NC(C)(C)C(=O)N[C@@H](CC(=O)O)C(=O)N[C@@H](Cc1ccccc1)C(=O)N[C@H](C(=O)N[C@@H](CCC(=O)O)C(=O)N[C@@H](Cc1ccncc1)C(=O)N[C@@H](CC(C)C)C(=O)N[C@@H](CC(C)C)C(=O)N[C@@H](C)C(=O)N[C@H](C(=O)NCC(=O)N1CCC[C@H]1C(=O)N[C@@H](CO)C(=O)N[C@@H](CO)C(=O)NCC(=O)N[C@@H](C)C(=O)N1CCC[C@H]1C(=O)N1CCC[C@H]1C(=O)N1CCC[C@H]1C(=O)N[C@@H](CO)C(N)=O)[C@@H](C)O)C(C)C)[C@@H](C)CC
B3: Example 73 (peptide)
peptide: Y[Aib]EGTLISDYSI[αMeL]LDKK([AEEA-AEEA-γGlu-C20 diacid])HQ[Aib]EFVEYLLEGGPSSGAPPPS-NH2
modifications: N-terminus assumed
SMILES: CC[C@H](C)[C@H](NC(=O)[C@H](CC(C)C)NC(=O)[C@@H](NC(=O)CNC(=O)[C@H](CCC(=O)O)NC(=O)C(C)(C)NC(=O)[C@@H](N)Cc1ccc(O)cc1)[C@@H](C)O)C(=O)N[C@@H](CO)C(=O)N[C@@H](CC(=O)O)C(=O)N[C@@H](Cc1ccc(O)cc1)C(=O)N[C@@H](CO)C(=O)N[C@H](C(=O)N[C@@](C)(CC(C)C)C(=O)N[C@@H](CC(C)C)C(=O)N[C@@H](CC(=O)O)C(=O)N[C@@H](CCCCN)C(=O)N[C@@H](CCCCNC(=O)COCCOCCNC(=O)COCCOCCNC(=O)CC[C@H](NC(=O)CCCCCCCCCCCCCCCCCCC(=O)O)C(=O)O)C(=O)N[C@@H](Cc1c[nH]cn1)C(=O)N[C@@H](CCC(N)=O)C(=O)NC(C)(C)C(=O)N[C@@H](CCC(=O)O)C(=O)N[C@@H](Cc1ccccc1)C(=O)N[C@H](C(=O)N[C@@H](CCC(=O)O)C(=O)N[C@@H](Cc1ccc(O)cc1)C(=O)N[C@@H](CC(C)C)C(=O)N[C@@H](CC(C)C)C(=O)N[C@@H](CCC(=O)O)C(=O)NCC(=O)NCC(=O)N1CCC[C@H]1C(=O)N[C@@H](CO)C(=O)N[C@@H](CO)C(=O)NCC(=O)N[C@@H](C)C(=O)N1CCC[C@H]1C(=O)N1CCC[C@H]1C(=O)N1CCC[C@H]1C(=O)N[C@@H](CO)C(N)=O)C(C)C)[C@@H](C)CC
B4: Example 72 (peptide)
peptide: Y[Aib]EGTLISDYSI[αMeL]LDKK([AEEA-AEEA-γGlu-C20 diacid])HQ[Aib]EFVEYLLETGPSSGAPPPS-NH2
modifications: N-terminus assumed
SMILES: CC[C@H](C)[C@H](NC(=O)[C@H](CC(C)C)NC(=O)[C@@H](NC(=O)CNC(=O)[C@H](CCC(=O)O)NC(=O)C(C)(C)NC(=O)[C@@H](N)Cc1ccc(O)cc1)[C@@H](C)O)C(=O)N[C@@H](CO)C(=O)N[C@@H](CC(=O)O)C(=O)N[C@@H](Cc1ccc(O)cc1)C(=O)N[C@@H](CO)C(=O)N[C@H](C(=O)N[C@@](C)(CC(C)C)C(=O)N[C@@H](CC(C)C)C(=O)N[C@@H](CC(=O)O)C(=O)N[C@@H](CCCCN)C(=O)N[C@@H](CCCCNC(=O)COCCOCCNC(=O)COCCOCCNC(=O)CC[C@H](NC(=O)CCCCCCCCCCCCCCCCCCC(=O)O)C(=O)O)C(=O)N[C@@H](Cc1c[nH]cn1)C(=O)N[C@@H](CCC(N)=O)C(=O)NC(C)(C)C(=O)N[C@@H](CCC(=O)O)C(=O)N[C@@H](Cc1ccccc1)C(=O)N[C@H](C(=O)N[C@@H](CCC(=O)O)C(=O)N[C@@H](Cc1ccc(O)cc1)C(=O)N[C@@H](CC(C)C)C(=O)N[C@@H](CC(C)C)C(=O)N[C@@H](CCC(=O)O)C(=O)N[C@H](C(=O)NCC(=O)N1CCC[C@H]1C(=O)N[C@@H](CO)C(=O)N[C@@H](CO)C(=O)NCC(=O)N[C@@H](C)C(=O)N1CCC[C@H]1C(=O)N1CCC[C@H]1C(=O)N1CCC[C@H]1C(=O)N[C@@H](CO)C(N)=O)[C@@H](C)O)C(C)C)[C@@H](C)CC
B5: Example 71 (peptide)
peptide: Y[Aib]EGTFISDYSI[αMeL]LDKK([AEEA-AEEA-γGlu-C20 diacid])HQ[Aib]DFVEWLLETGPSSGAPPPS-NH2
modifications: N-terminus assumed
SMILES: CC[C@H](C)[C@H](NC(=O)[C@H](Cc1ccccc1)NC(=O)[C@@H](NC(=O)CNC(=O)[C@H](CCC(=O)O)NC(=O)C(C)(C)NC(=O)[C@@H](N)Cc1ccc(O)cc1)[C@@H](C)O)C(=O)N[C@@H](CO)C(=O)N[C@@H](CC(=O)O)C(=O)N[C@@H](Cc1ccc(O)cc1)C(=O)N[C@@H](CO)C(=O)N[C@H](C(=O)N[C@@](C)(CC(C)C)C(=O)N[C@@H](CC(C)C)C(=O)N[C@@H](CC(=O)O)C(=O)N[C@@H](CCCCN)C(=O)N[C@@H](CCCCNC(=O)COCCOCCNC(=O)COCCOCCNC(=O)CC[C@H](NC(=O)CCCCCCCCCCCCCCCCCCC(=O)O)C(=O)O)C(=O)N[C@@H](Cc1c[nH]cn1)C(=O)N[C@@H](CCC(N)=O)C(=O)NC(C)(C)C(=O)N[C@@H](CC(=O)O)C(=O)N[C@@H](Cc1ccccc1)C(=O)N[C@H](C(=O)N[C@@H](CCC(=O)O)C(=O)N[C@@H](Cc1c[nH]c2ccccc12)C(=O)N[C@@H](CC(C)C)C(=O)N[C@@H](CC(C)C)C(=O)N[C@@H](CCC(=O)O)C(=O)N[C@H](C(=O)NCC(=O)N1CCC[C@H]1C(=O)N[C@@H](CO)C(=O)N[C@@H](CO)C(=O)NCC(=O)N[C@@H](C)C(=O)N1CCC[C@H]1C(=O)N1CCC[C@H]1C(=O)N1CCC[C@H]1C(=O)N[C@@H](CO)C(N)=O)[C@@H](C)O)C(C)C)[C@@H](C)CC
B6: Example 74 (peptide)
peptide: YXEGTXISDYSIXLDKKHQXDFVEXLLEGGPSSGAPPPS
modifications: Aib2; Iva6; αMeL13; K17((2-[2-(2-Amino-ethoxy)-ethoxy]-acetyl)2-(γ-Glu)-CO-(CH2)18-CO2H); Aib20; 4-Pal25; C-terminal amide
B7: Example 75 (peptide)
peptide: B6 peptide with G29T
modifications: Aib2; Iva6; αMeL13; K17((2-[2-(2-Amino-ethoxy)-ethoxy]-acetyl)2-(γ-Glu)-CO-(CH2)18-CO2H); Aib20; 4-Pal25; C-terminal amide
B8: Example 77 (peptide)
peptide: B6 peptide with K16X, G29T
modifications: Aib2; Iva6; αMeL13; Orn16; K17((2-[2-(2-Amino-ethoxy)-ethoxy]-acetyl)2-(γ-Glu)-CO-(CH2)18-CO2H); Aib20; 4-Pal25; C-terminal amide
B9: Example 76 (peptide)
peptide: B6 peptide with K16X
modifications: Aib2; Iva6; αMeL13; Orn16; K17((2-[2-(2-Amino-ethoxy)-ethoxy]-acetyl)2-(γ-Glu)-CO-(CH2)18-CO2H); Aib20; 4-Pal25; C-terminal amide

What was measured:
Experiment in all cases: cell-based or functional assay
human glucagon receptor = human glucagon receptor (human, UniProt P47871 26-477)
[1] = molecular target: T1, human glucose-dependent insulinotropic …
human GLP-1 receptor = human GLP-1 receptor (human, UniProt P43220 24-463)

human glucagon receptor, sequence (P47871 26-477): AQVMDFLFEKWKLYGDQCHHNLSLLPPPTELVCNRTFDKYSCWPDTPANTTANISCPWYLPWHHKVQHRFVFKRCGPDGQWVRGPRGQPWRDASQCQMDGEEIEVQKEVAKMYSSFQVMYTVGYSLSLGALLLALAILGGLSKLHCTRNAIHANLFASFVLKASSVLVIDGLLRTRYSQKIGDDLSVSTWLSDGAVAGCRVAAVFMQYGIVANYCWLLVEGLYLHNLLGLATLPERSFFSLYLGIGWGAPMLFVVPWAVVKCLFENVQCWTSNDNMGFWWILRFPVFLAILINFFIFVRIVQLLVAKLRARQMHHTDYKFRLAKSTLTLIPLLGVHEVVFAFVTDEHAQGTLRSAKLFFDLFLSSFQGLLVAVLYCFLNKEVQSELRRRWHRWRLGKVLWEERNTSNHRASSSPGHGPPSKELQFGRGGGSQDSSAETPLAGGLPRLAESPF

Row | Binder | hGcgR cAMP Rel EC50 (human glucagon receptor) [nM] | hGIPR cAMP Rel EC50 [1] [nM] | hGLP1R cAMP Rel EC50 (human GLP-1 receptor) [nM]
1 | B1 | 803 | 0.0302 | > 5000
2 | B2 | 3560 | 0.0254 | > 5000
3 | B3 | > 5000 | 0.0151 | > 5000
4 | B4 | > 5000 | 0.0182 | > 5000
5 | B5 | 581 | 0.0721 | > 5000
6 | B6 | 627 | 0.0167 | > 5000
7 | B7 | 2170 | 0.0182 | > 5000
8 | B8 | 2660 | 0.0265 | > 5000
9 | B9 | 1200 | 0.0154 | > 5000

Source: patent US20210032299A1 (Eli Lilly, published 2021)
